Data on six substances can be found in the supplement of paper PMC5998384.

The test system of data set [1] is HeLa Kyoto. Briefly: melting temperature (median over replicates), in situ; higher = more thermally stable.
For data set [2], the system named is HeLa Kyoto. The data set is described as follows: solubility change mitosis vs G1/S (difference of NP-40 vs SDS log2 ratios) (log2 ratio difference); higher = more soluble in mitosis.
Data set [3] deals with HeLa Kyoto. The data set is described as follows: thermal stability score vs G1/S (z-score of summed log2 fold changes over temperatures); higher = more thermally stable than in G1/S.
Data set [4] deals with HeLa Kyoto. The data set is described as follows: solubility in G1/S (NP-40 vs SDS abundance) (log2 ratio); higher = more soluble. As to conditions: cell cycle stage: G1/S.
Where [5] appears, read: cell cycle stage: early G1 (4.5 h after nocodazole release).
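For melting temperature (median over replicates), in situ in this document: HeLa Kyoto cells synchronized by double thymidine or nocodazole block, proteins quantified by TMT10plex mass spectrometry, three independent biological replicates.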
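For solubility change mitosis vs G1/S (difference of NP-40 vs SDS log2 ratios) in this document: synchronized HeLa Kyoto cells (double thymidine block for G1/S, nocodazole release for mitosis), protein amounts in NP-40 versus SDS lysates quantified by mass spectrometry, three biological replicates.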
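For solubility in G1/S (NP-40 vs SDS abundance) in this document: HeLa Kyoto cells arrested at G1/S by double thymidine block, proteins quantified by TMT10plex mass spectrometry in mild NP-40 versus SDS extracts, three biological replicates.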
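For thermal stability score vs G1/S (z-score of summed log2 fold changes over temperatures) in this document: synchronized HeLa Kyoto cells, proteins quantified by TMT10plex mass spectrometry, three biological replicates, mitosis taken 0.5 h after nocodazole release, G1/S directly after double thymidine block.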

With “MFRRPVLQVLRQFVRHESETTTSLVLERSLNRVHLLGRVGQDPVLRQVEGKNPVTIFSLATNEMWRSGDSEVYQLGDVSQKTTWHRISVFRPGLRDVAYQYVKKGSRIYLEGKIDYGEYMDKNNVRRQATTIIADNIIFLSDQTKEKE [SSBP1]”, the melting temperature in the data set on HeLa Kyoto [1] (cell cycle stage: G1/S) worked out at 59.5 °C; in the data set on HeLa Kyoto [1] (cell cycle stage: mitosis), 59.6 °C. In addition, the “solubility change mitosis (log2)” value with HeLa Kyoto [2] worked out at 0.0149. Also, the thermal stability score in the data set with HeLa Kyoto [3] (setting [5]) was 0.62; in the data set with HeLa Kyoto [3] (cell cycle stage: mitosis) it was -1.51. Moreover, the “solubility in G1/S (log2)” value in the data set with HeLa Kyoto [4] was determined as 0.0755.

For MFSD10, the melting temperature with HeLa Kyoto [1] (cell cycle stage: G1/S) worked out at 57.2 °C; with HeLa Kyoto [1] (cell cycle stage: mitosis), 57.1 °C. Also, the “solubility change mitosis (log2)” value in the data set with HeLa Kyoto [2] was -0.219. In addition, the values for the thermal stability score in the data set on HeLa Kyoto [3] (setting [5]) and in the data set on HeLa Kyoto [3] (cell cycle stage: mitosis) were -2.75 and -4.59, respectively. The “solubility in G1/S (log2)” value in the data set on HeLa Kyoto [4] is -0.0104.

Take “MFSFNMFDHPIPRVFQNRFSTQYRCFSVSMLAGPNDRSDVEKGGKIIMPPSALDQLSRLNITYPMLFKLTNKNSDRMTHCGVLEFVADEGICYLPHWMMQNLLLEEGGLVQVESVNLQVATYSKFQPQSPDFLDITNPKAVLENALRNFACLTTGDVIAINYNEKIYELRVMETKPDKAVSIIECDMNVDFDAPLGYKEPERQVQHEESTEGEADHSGYAGELGFRAFSGSGNRLDGKKKGVEPSPSPIKPGDIKRGIPNYEFKLGKITFIRNSRPLVKKVEEDEAGGRFVAFSGEGQSLRKKGRKP [UFD1L]”: the melting temperature in the data set on HeLa Kyoto [1] (cell cycle stage: G1/S) is 54.2 °C; with HeLa Kyoto [1] (cell cycle stage: mitosis), 54.3 °C. Moreover, the “solubility change mitosis (log2)” value in the data set on HeLa Kyoto [2] is -0.123. Moreover, the thermal stability score in the data set with HeLa Kyoto [3] (setting [5]) was 0.171; in the data set with HeLa Kyoto [3] (cell cycle stage: mitosis), -0.639. For the same substance, the “solubility in G1/S (log2)” value in the data set with HeLa Kyoto [4] was 0.0333.

Turning to “MFSLSSTVQPQVTVPLSHLINAFHTPKNTSVSLSGVSVSQNQHRDVVPEHEAPSSECMFSDFLTKLNIVSIGKGKIFEGYRSMFMEPAKRMKKSLDTTDNWHIRPEPFSLSIPPSLNLRDLGLSELKIGQIDQLVENLLPGFCKGKNISSHWHTSHVSAQSFFENKYGNLDIFSTLRSSCLYRHHSRALQSICSDLQYWPVFIQSRGFKTLKSRTRRLQSTSERLAETQNIAPSFVKGFLLRDRGSDVESLDKLMKTKNIPEAHQDAFKTGFAEGFLKAQALTQKTNDSLRRTRLILFVLLLFGIYGLLKNPFLSVRFRTTTGLDSAVDPVQMKNVTFEHVKGVEEAKQELQEVVEFLKNPQKFTILGGKLPKGILLVGPPGTGKTLLARAVAGEADVPFYYASGSEFDEMFVGVGASRIRNLFREAKANAPCVIFIDELDSVGGKRIESPMHPYSRQTINQLLAEMDGFKPNEGVIIIGATNFPEALDNALIRPGRFDMQVTVPRPDVKGRTEILKWYLNKIKFDQSVDPEIIARGTVGFSGAELENLVNQAALKAAVDGKEMVTMKELEFSKDKILMGPERRSVEIDNKNKTITAYHESGHAIIAYYTKDAMPINKATIMPRGPTLGHVSLLPENDRWNETRAQLLAQMDVSMGGRVAEELIFGTDHITTGASSDFDNATKIAKRMVTKFGMSEKLGVMTYSDTGKLSPETQSAIEQEIRILLRDSYERAKHILKTHAKEHKNLAEALLTYETLDAKEIQIVLEGKKLEVR [YME1L1]”, the melting temperature in the data set with HeLa Kyoto [1] (cell cycle stage: G1/S) was 50.9 °C; in the data set with HeLa Kyoto [1] (cell cycle stage: mitosis), 50.8 °C. Besides, in the data set with HeLa Kyoto [2], the “solubility change mitosis (log2)” value was -0.0396. The thermal stability score in the data set with HeLa Kyoto [3] (setting [5]) was found to be 2.02; in the data set with HeLa Kyoto [3] (cell cycle stage: mitosis), 1.49. Besides, in the data set with HeLa Kyoto [4], the “solubility in G1/S (log2)” value is 0.0482.

Take “MFSWLKRGGARGQQPEAIRTVTSALKELYRTKLLPLEEHYRFGAFHSPALEDADFDGKPMVLVAGQYSTGKTSFIQYLLEQEVPGSRVGPEPTTDCFVAVMHGDTEGTVPGNALVVDPDKPFRKLNPFGNTFLNRFMCAQLPNQVLESISIIDTPGILSGAKQRVSRGYDFPAVLRWFAERVDLIILLFDAHKLEISDEFSEAIGALRGHEDKIRVVLNKADMVETQQLMRVYGALMWALGKVVGTPEVLRVYIGSFWSQPLLVPDNRRLFELEEQDLFRDIQGLPRHAALRKLNDLVKRARLVRVHAYIISYLKKEMPSVFGKENKKKQLILKLPVIFAKIQLEHHISPGDFPDCQKMQELLMAHDFTKFHSLKPKLLEALDEMLTHDIAKLMPLLRQEELESTEVGVQGGAFEGTHMGPFVERGPDEAMEDGEEGSDDEAEWVVTKDKSKYDEIFYNLAPADGKLSGSKAKTWMVGTKLPNSVLGRIWKLSDVDRDGMLDDEEFALASHLIEAKLEGHGLPANLPRRLVPPSKRRHKGSAE [EHD2]”: the melting temperature turned out to be 48.9 °C in the data set on HeLa Kyoto [1] (cell cycle stage: G1/S) and 49.5 °C in the data set on HeLa Kyoto [1] (cell cycle stage: mitosis). Moreover, in the data set on HeLa Kyoto [2], the “solubility change mitosis (log2)” value was -0.164. The thermal stability score in the data set with HeLa Kyoto [3] (setting [5]) turned out to be 1.58; in the data set on HeLa Kyoto [3] (cell cycle stage: mitosis), 2.05. Besides, in the data set on HeLa Kyoto [4], the “solubility in G1/S (log2)” value was 0.231.

Take “MFVPCGESAPDLAGFTLLMPAVSVGNVGQLAMDLIISTLNMSKIGYFYTDCLVPMVGNNPYATTEGNSTELSINAEVYSLPSRKLVALQLRSIFIKYKSKPFCEKLLSWVKSSGCARVIVLSSSHSYQRNDLQLRSTPFRYLLTPSMQKSVQNKIKSLNWEEMEKSRCIPEIDDSEFCIRIPGGGITKTLYDESCSKEIQMAVLLKFVSEGDNIPDALGLVEYLNEWLQILKPLSDDPTVSASRWKIPSSWRLLFGSGLPPALF [PSMG2]”: the melting temperature in the data set with HeLa Kyoto [1] (cell cycle stage: G1/S) came to 54.2 °C; in the data set with HeLa Kyoto [1] (cell cycle stage: mitosis), 53.9 °C. The “solubility change mitosis (log2)” value with HeLa Kyoto [2] was -0.0561. Also, the thermal stability score is -0.904 in the data set with HeLa Kyoto [3] (setting [5]) and -2.71 in the data set on HeLa Kyoto [3] (cell cycle stage: mitosis). Also, the “solubility in G1/S (log2)” value in the data set with HeLa Kyoto [4] is 0.264.
